Kd data for 37 molecules are collected here from PMC10786891, “Massively parallel profiling of RNA-targeting CRISPR-Cas13d”.

T1: EsCas13d, nuclease-dead (Eubacterium siraeum, UniProt B0MS50, R295A;H300A;R849A;H854A)
T1 sequence: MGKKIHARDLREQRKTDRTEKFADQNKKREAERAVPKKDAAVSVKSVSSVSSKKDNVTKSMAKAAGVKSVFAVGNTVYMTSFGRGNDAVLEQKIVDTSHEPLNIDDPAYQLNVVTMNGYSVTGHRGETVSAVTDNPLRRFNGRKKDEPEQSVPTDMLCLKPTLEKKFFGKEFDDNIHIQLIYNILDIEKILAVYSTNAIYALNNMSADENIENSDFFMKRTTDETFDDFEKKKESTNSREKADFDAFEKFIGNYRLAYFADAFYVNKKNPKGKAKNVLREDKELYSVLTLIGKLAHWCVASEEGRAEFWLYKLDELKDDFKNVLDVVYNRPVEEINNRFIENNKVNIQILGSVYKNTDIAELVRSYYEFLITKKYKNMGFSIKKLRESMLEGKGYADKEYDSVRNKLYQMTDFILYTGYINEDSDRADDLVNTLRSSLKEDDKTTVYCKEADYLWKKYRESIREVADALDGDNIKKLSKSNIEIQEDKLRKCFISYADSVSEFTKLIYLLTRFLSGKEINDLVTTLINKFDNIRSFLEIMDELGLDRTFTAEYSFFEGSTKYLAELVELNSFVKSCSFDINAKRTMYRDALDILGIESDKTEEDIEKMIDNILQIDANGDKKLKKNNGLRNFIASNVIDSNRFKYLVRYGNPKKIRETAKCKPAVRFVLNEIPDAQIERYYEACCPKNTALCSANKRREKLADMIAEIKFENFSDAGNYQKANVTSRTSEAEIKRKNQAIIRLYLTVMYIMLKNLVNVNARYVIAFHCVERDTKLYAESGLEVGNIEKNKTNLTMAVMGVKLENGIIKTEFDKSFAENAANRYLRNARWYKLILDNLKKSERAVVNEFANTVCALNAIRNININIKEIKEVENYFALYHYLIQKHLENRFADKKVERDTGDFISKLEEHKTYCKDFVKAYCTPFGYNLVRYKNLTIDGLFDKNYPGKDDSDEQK

B1: target 1 MT 5'PFS GGG 3'PFS AGU (mixed)
RNA 1: CACCCGUGCAAAAAUGCAGGGGUCUAAAACUGAGCGGAUAACCUCUCUAUGG
RNA 2: GGGAAUGGAUCCACAUCUACGAAUUCGGGCCAUAGAGAGGUUAUCCGCUCAAGUAGAUCGGAAGAGCACACGU
B2: target 1 MT 5'PFS AAA 3'PFS UCG (mixed)
RNA 1: B1 RNA 1
RNA 2: B1 RNA 2 with G27A, G28A, G29A, A52U, G53C, U54G
B3: target 1 MT 5'PFS GUA 3'PFS AAU (mixed)
RNA 1: B1 RNA 1
RNA 2: B1 RNA 2 with G28U, G29A, G53A
B4: target 1 MT 5'PFS UCG 3'PFS UAU (mixed)
RNA 1: B1 RNA 1
RNA 2: B1 RNA 2 with G27U, G28C, A52U, G53A
B5: target 1 MT 5'PFS UCG 3'PFS UAC (mixed)
RNA 1: B1 RNA 1
RNA 2: B1 RNA 2 with G27U, G28C, A52U, G53A, U54C
B6: target 1 MT 5'PFS GUA 3'PFS AAA (mixed)
RNA 1: B1 RNA 1
RNA 2: B1 RNA 2 with G28U, G29A, G53A, U54A
B7: target 1 MT 5'PFS ACU 3'PFS UUG (mixed)
RNA 1: B1 RNA 1
RNA 2: B1 RNA 2 with G27A, G28C, G29U, A52U, G53U, U54G
B8: target 1 MT 5'PFS UCG 3'PFS UAA (mixed)
RNA 1: B1 RNA 1
RNA 2: B1 RNA 2 with G27U, G28C, A52U, G53A, U54A
B9: target 1 MT 5'PFS GAC 3'PFS AAU (mixed)
RNA 1: B1 RNA 1
RNA 2: B1 RNA 2 with G28A, G29C, G53A
B10: target 1 MT 5'PFS ACU 3'PFS UUA (mixed)
RNA 1: B1 RNA 1
RNA 2: B1 RNA 2 with G27A, G28C, G29U, A52U, G53U, U54A
B11: target 1 MT 5'PFS UAC 3'PFS CCG (mixed)
RNA 1: B1 RNA 1
RNA 2: B1 RNA 2 with G27U, G28A, G29C, A52C, G53C, U54G
B12: target 1 MT 5'PFS GCG 3'PFS CUG (mixed)
RNA 1: B1 RNA 1
RNA 2: B1 RNA 2 with G28C, A52C, G53U, U54G
B13: target 1 MT 5'PFS GGG 3'PFS GGC (mixed)
RNA 1: B1 RNA 1
RNA 2: B1 RNA 2 with A52G, U54C
B14: target 1 MT 5'PFS GGG 3'PFS GGG (mixed)
RNA 1: B1 RNA 1
RNA 2: B1 RNA 2 with A52G, U54G
B15: target 1 MT 5'PFS GGU 3'PFS UCU (mixed)
RNA 1: B1 RNA 1
RNA 2: B1 RNA 2 with G29U, A52U, G53C
B16: target 1 MT 5'PFS GGA 3'PFS AGG (mixed)
RNA 1: B1 RNA 1
RNA 2: B1 RNA 2 with G29A, U54G
B17: target 1 MT 5'PFS GCC 3'PFS CCU (mixed)
RNA 1: B1 RNA 1
RNA 2: B1 RNA 2 with G28C, G29C, A52C, G53C
B18: target 1 C6G,U8A (mixed)
RNA 1: B1 RNA 1
RNA 2: B1 RNA 2 with G28U, G29A, U44A, C46G, A52C, G53C, U54G
B19: target 1 MT 5'PFS GUA 3'PFS AAC (mixed)
RNA 1: B1 RNA 1
RNA 2: B1 RNA 2 with G28U, G29A, G53A, U54C
B20: target 1 MT 5'PFS AAA 3'PFS UCU (mixed)
RNA 1: B1 RNA 1
RNA 2: B1 RNA 2 with G27A, G28A, G29A, A52U, G53C
B21: target 1 MT 5'PFS UAU 3'PFS UUU (mixed)
RNA 1: B1 RNA 1
RNA 2: B1 RNA 2 with G27U, G28A, G29U, A52U, G53U
B22: target 1 MT 5'PFS GAC 3'PFS AAG (mixed)
RNA 1: B1 RNA 1
RNA 2: B1 RNA 2 with G28A, G29C, G53A, U54G
B23: target 1 MT 5'PFS ACU 3'PFS UUU (mixed)
RNA 1: B1 RNA 1
RNA 2: B1 RNA 2 with G27A, G28C, G29U, A52U, G53U
B24: target 1 MT 5'PFS GGG 3'PFS GGU (mixed)
RNA 1: B1 RNA 1
RNA 2: B1 RNA 2 with A52G
B25: target 1 MT 5'PFS UAU 3'PFS UUC (mixed)
RNA 1: B1 RNA 1
RNA 2: B1 RNA 2 with G27U, G28A, G29U, A52U, G53U, U54C
B26: target 1 MT 5'PFS UGU 3'PFS CAA (mixed)
RNA 1: B1 RNA 1
RNA 2: B1 RNA 2 with G27U, G29U, A52C, G53A, U54A
B27: target 1 insA 3' of 13,insU 3' of 7 (mixed)
RNA 1: B1 RNA 1
RNA 2: GGGAAUGGAUCCACAUCUACGAAUUCGUACCAUAGAGAGAGUUAUCUCGCUCACCGAGAUCGGAAGAGCACACGU
B28: target 1 MT 5'PFS GUA 3'PFS AAG (mixed)
RNA 1: B1 RNA 1
RNA 2: B1 RNA 2 with G28U, G29A, G53A, U54G
B29: target 1 MT 5'PFS GCG 3'PFS CUA (mixed)
RNA 1: B1 RNA 1
RNA 2: B1 RNA 2 with G28C, A52C, G53U, U54A
B30: target 1 MT 5'PFS UCC 3'PFS AGA (mixed)
RNA 1: B1 RNA 1
RNA 2: B1 RNA 2 with G27U, G28C, G29C, U54A
B31: target 1 MT 5'PFS UAU 3'PFS UUA (mixed)
RNA 1: B1 RNA 1
RNA 2: B1 RNA 2 with G27U, G28A, G29U, A52U, G53U, U54A
B32: target 1 MT 5'PFS GCG 3'PFS CUU (mixed)
RNA 1: B1 RNA 1
RNA 2: B1 RNA 2 with G28C, A52C, G53U
B33: target 1 MT 5'PFS GAC 3'PFS CCG (mixed)
RNA 1: B1 RNA 1
RNA 2: B1 RNA 2 with G28A, G29C, A52C, G53C, U54G
B34: target 1 MT 5'PFS GCG 3'PFS CUC (mixed)
RNA 1: B1 RNA 1
RNA 2: B1 RNA 2 with G28C, A52C, G53U, U54C
B35: target 1 MT 5'PFS CAC 3'PFS CCG (mixed)
RNA 1: B1 RNA 1
RNA 2: B1 RNA 2 with G27C, G28A, G29C, A52C, G53C, U54G
B36: target 1 insC 3' of 13,insG 3' of 3 (mixed)
RNA 1: B1 RNA 1
RNA 2: B27 RNA 2 with A40C, U47C, C48G, G49C, C50U, U51G
B37: target 1 MT 5'PFS GGC 3'PFS GCU (mixed)
RNA 1: B1 RNA 1
RNA 2: B1 RNA 2 with G29C, A52G, G53C

Positions count from the first letter of the chain named. Names may count otherwise.

In the data set the target is T1, EsCas13d, nuclease-dead. Nature of the data set: crRNA (strand 1, pre-loaded); Mg2+; 40 mM Tris-HCl pH 7.5, 150 mM NaCl, 6 mM MgCl2, 1 mM DTT, 0.1% Tween-20, 0.2 mg/ml BSA; 25 C; 10 min per concentration, then washed. The settings on record: tags: His6-TwinStrep-SUMO cleaved; N-terminal SNAP kept (SNAP-Surface 488); label: 3' end held by stalled T7 RNA polymerase.
B1: the equilibrium dissociation constant (Kd) worked out at 30.4 ± 4.65 nM.

As for B2, the Kd stood at 15.2 ± 3.7 nM.

For B3, binding was characterised by a dissociation constant (Kd) of 17.8 ± 1.5 nM.

As for B4, the Kd amounted to 27 ± 5.5 nM. This Kd lies about 1.5-fold higher than the previous one.

With B5, the Kd came to 22.5 ± 9 nM.

In turn, B6 registered a dissociation constant Kd of 26.4 ± 3.45 nM.

In turn, B7 yielded a Kd of 46 ± 15 nM. Compared with the last molecule, the Kd is about 1.7-fold higher.

Take B8: binding was characterised by a dissociation constant (Kd) of 86.5 ± 38.5 nM.

As for B9, the Kd is about 50 nM.

Turning to B10, the Kd was determined as 52.5 ± 21 nM.

B11 showed a dissociation constant (Kd) of 14.5 ± 6 nM.

Regarding B12, the dissociation constant (Kd) came to 10.7 ± 1.8 nM.

B13 showed a Kd of 26.5 ± 5 nM.

B14 registered a Kd of 65.5 ± 14 nM. Compared with the last molecule, the Kd is about 2.5-fold higher.

In the case of B15, the equilibrium dissociation constant (Kd) was found to be 34 ± 8.5 nM.

B16 returned a dissociation constant Kd of 31 ± 4.5 nM.

The molecule B17 had a Kd of 8.9 ± 3 nM.

As to B18, the Kd is 13.8 ± 0.6 nM.

Molecule B19 showed an equilibrium dissociation constant (Kd) of 20.4 ± 1.55 nM.

As to B20, the Kd amounted to 25 ± 5.5 nM.

B21 showed an equilibrium dissociation constant (Kd) of 31 ± 7.5 nM.

Consider B22, for which the affinity, expressed as Kd, was 50.5 ± 22.5 nM.

Molecule B23 yielded a dissociation constant (Kd) of 39.5 ± 15.5 nM.

B24 registered a dissociation constant (Kd) of 61 ± 14 nM.

B25 had a Kd of 22.5 ± 6 nM.

Regarding B26, the dissociation constant (Kd) was about 90 nM.

The molecule B27 returned a Kd of 11.2 ± 0.8 nM.

On to B28, for which the Kd was found to be 19.1 ± 1.2 nM. Against the preceding molecule, the Kd is about 1.7-fold higher.

With B29, the Kd is 15.7 ± 3.15 nM.

As for B30, the Kd was about 60 nM.

In the case of B31, binding was characterised by a dissociation constant (Kd) of 18.1 ± 3.15 nM.

The molecule B32 gave a Kd of 15.6 ± 3.75 nM.

B33: binding was put at a Kd of 13.8 ± 3 nM.

On to B34, for which the Kd was about 43 nM.

With B35, binding was put at a Kd of 9.7 ± 2.45 nM.

As for B36, the affinity, expressed as Kd, was 5.58 ± 0.3 nM.

Molecule B37 registered a Kd of 7.25 ± 1.75 nM.

What is called Kd is the free concentration of one partner at which half of the binding sites on the other are occupied at equilibrium, for simple one-to-one binding. Read a high Kd as weaker binding.
